Experiment: soluble on expression in E. coli; label from the status in PepcDB or PDB records

Soluble on expression in E. coli, not soluble:
MGSDKIHHHHHHMMYQTYDLYSRSAEMMNGFISVNQQLLTHPFNPFSNTLLGKSINAALDSAYHHTKVYDKQPFDIKTTIIDGETVNIDEQVILAKPFCNLIHFKQDTKVQQPKLFLVAPLSGHHATLLKATIERLILDHDVYITDWLDAKNVPLSEGNFDFDDYVTYLIEFMKEIGEDTHVLAVCQPAVQALIATAVLAKDKDAATPKSLTIIAGPIDTSINPNELNKYASSKDLSWFENNVIMTVPERFPGAGRKVYPGFIQLTSFMAMNIENHVKKHTDYFGHVFHGKEDKQESHRDFYDEYLAVLDLNSEFYLETLDRVFINQDLANGKMTYHGELVDLSAITDTALHTIEGKNDDICSLGQTQAAQALCSGIPEQNKLDQVFDGVGHFGTFSGSAFRERIAPSIAEFIQKHK
MGSDKIHHHHHHMNAEKSPENHNVDHEEIAKFEAVASRWWDLEGEFKPLHRINPLRLGYIAERAGGLFGKKVLDVGCGGGILAESMAREGATVTGLDMGFEPLQVAKLHALESGIQVDYVQETVEEHAAKHAGQYDVVTCMEMLEHVPDPQSVVRACAQLVKPGGDVFFSTLNRNGKSWLMAVVGAEYILRMVPKGTHDVKKFIKPAELLGWVDQTSLKERHITGLHYNPITNSFKLGPGVDVNYMLHTQNK
MGSDKIHHHHHHMNAHTIPELRYAMSREAIIGHETAWKVSSFGVAQYLHGYDPALLAAIEEAALKLKDSHAVHKHLDLTFITGADRFIPEIKELLHDKLRLERLSDMMGTKLEPYPLSIVGSTVTFMNPRDGAVEWHCDGVPVTELIPLSISNPLVGGHLEIYCDDSETGRAILESGREIPRNRIMRIDHKMNYATLGQFLGVLHRTAPIQYGERVTLVLNQRSVAKPYVDDNRMFYLAADNDHDREWVNELAEDVWTNQLPAYRRFEAEHPTPAPASETQVSGGARGSW
MGSDKIHHHHHHMNDENIQSSNYQPFPSFDDWKQIEVSLLDVIESSRHFSDLKDSTDRSALDAALERAKRAAAVDTNAIEGIFQTDRGFTHTVATQVGAWEQQMAMKGKHVKPAFDDTLEGFEYVLDAVTGRTPISQQWIRNLHAVILRSQESHEVFTAVGVQNQALQKGEYKTQPNSPQRSDGSVHAYAPVEDTPAEMARFISELESKEFLAAEKVIQAAYAHYAFVCIHPFADGNGRVARALASVFLYKDPGVPLVIYQDQRRDYIHALEAADKNNPLLLIRFFAERVTDTINSIIVDLTTPIAGKSGSAKLSDALRPTRVLPELHDAAHRLQESLFTEIRSRLDEEGKRNGLEFLLQRIFIGSPFNLPEGYNAFPDSYCLTLAFNSNSPKQIFHPLSIVIAARDGKRASSDLVAATSIGYNFHAYGREVEPVVTESFRERVKIYADGIVDHFLTELAKKFQQN
MGSDKIHHHHHHMNDNAERRYRRPSYRITLDEQDITPRINGRLIRLRLRSQRGLEADQLDLTLSDHDGALALPRRGVSLRVAYGWQDDGLIDKGLFTVDEVQHSGTPDQITIRARSADMRGRLPGKRSRSWHDITVGEIIDTIAKRHTLEPVVGDTVRGIRIGHIDQTEESDLNFLTRLGERFDAVATVKAARLLFTQAGEALTASGLAMPSVTLTRRDGDRHRYSATDRDTYTGVIAYWNDKANAKRQRVIAGSDEDAKELRPTYATEADALDAAKAEWRRVQRGEATFKITLAYGRADILPESPLTASGFKPDIDATPWLVTEVEDSLDDNGFGTRVQCEVRGGAAET
MGSDKIHHHHHHMNDRFVCSLIEKSDLSNFVKKHSKNVFYDIAKAEAAVHQQTIDTIHFHEVGAIDSIVDIVGFFILWEQLEIEQVYSTPITDGSGTITIAHGVMPIPVPAVMELRKETNLIIQQDFEIKTELVTPTGLAIFKELSPLFVAPEQRLIEKIGYGFGKRETGKFNALRGSIFTETHSKKKRTEHHDQVLKIETNIDNQTPEQLGYVMDLLLEHGALDVFFTPIHMKKNRSAILLTVLTTTEEKEYFTELLFKHTSTIGMRFQTMERSVMDRSFKILETPFGKVHIKKNHYHGLLKESIEYQDCERIAKQYNFTIEEVYRLVQTLNNKTID
MGSDKIHHHHHHMNEFIASIKSATASLHTQLEQSEISNVIMSQLVTEKAYAEYLSRIQCMHEDIEKHTFPIIHTIIKDTAQRTKSTAIAADLDQLKYASAVNKTFLDAAHSPDLNFNLGLMYVTEGSVLGGQVILKNIKKQLGEDIASRFLNVYGQQTGHLWRSFLIQLSEYQSTLSEKEKMTIIDGAKYGFERVYSILM
MGSDKIHHHHHHMNERLRQGLVAAEGPLSGEVIKDVECVAGGCIHQAWCLQLKGGRQLFAKTGGADALPMLKVEVEGLKALKAWVDPGVLEVPEPLAFDQVCGEAVLLLPWLDFRAGNQASLGRGLALLHRASAAENPGRFGWPVDGFIGAGSQPGGWREQWGDAFVTLRLRPQLREAARWGLDLVDVEPILAALIPWLDRHQPSPSLVHGDLWSGNANVLSDGRGVLLDPATWWADREVDLAMTQLFGGFSQDFYIGYENVWPLPADASQRVEVYNLYHLINHANLFGGSYRNQSQAILNRLASWLLT
MGSDKIHHHHHHMNFLDGHLFPENQQPLIITAAPYAPGWLPSDFPEDIPVTMEEQIQKAVDCYNAGATVLHLHVRELDGKGSKRLSKFNELVAGVRKAVPEMIIQVGGSISFAPENEGQAAKWLSDDTRHMLADLEPTPDQVTVTVNTSQMNVTDHAEDADFRGTSRENPAIFNAYKEMTVPAQPGWVEEHVRRLTAKGIQSAFQCYNTNSFESVERLMRRGFYKGPLVMNWVAIGGGMDTPNVYSLGNFMRGVPDGAVVTVESNVRNVLPVNMMGIAMGLHVRCGTEDVLWNQKRTAKMSTVKQIEQLVRISHEFGREIATAKEAREISKIGVFYDTVEESLQANGFAPNRNGGTQGYLRKTR
MGSDKIHHHHHHMNGIGATPYSESQKFHIAAIILAAGFSLRMKSFKPLLPLGSASVIETAIQSFRKAGFMDIRVVLGHKAGELLPICDALGVQPILNEDYAEGMFSSVKAGVKSLGREVDGFFLLPADNPLIQADTLQRLYEGFNLGPGGIVYPVCQGKRGHPPLISRSYRDSILSWRGEGGLRALLEHYQADALEVGTEDQGVLLDMDTPEDYRTLLKHYGCAPTPTEFECYELLKGNNTPDQVIKHCETVARLSVFLGEQLSEAGLHLNRELLRTSALLHDIARLKPNHPQEGAKLTAAYPEVSAIIAAHMDCPWEPSQPLTEQEIVYLADKLVAKERIVSLQERFKGSVERHQNEPEVLEHVYRRFGQAYRIHDRVEEILGKSVQTLIKSNLGSDVHG
MGSDKIHHHHHHMNHLVEVQHMERMNRTNHIQKLDKERYLNLKTGEIGEFKQGEVRSDSLNSLRQTFKKLRYLINTNYVGAGNELFITLTYKENMTDVKRLYSDFKKFMLKFRYKYEKQYGSIDYMTVVEPQERGAWHHHLLVRFNDMTGSKMYIPNNDVAALWGHGFTNMHSLNGVDNIGAYLSAYLADVELTTDNVFLAFDDNVEVVSKVVDGQEKKFIKGGRLHLYPSGMNLYRKSKGIKMPVREEMRYGDIKKVVGSEKPHYVKTLVVEQDDFKNTITYEQYNTKR
MGSDKIHHHHHHMNIAILNHYASIPEVGSAETRHFELAKRFVREGHRVDIYIGDFSHLTGKRWSETFGWSFSKDGVDFIVVETREYTGNSLSRLLSSIDYYRNGRKKIIQKRYDVIIASSPHPFSWSLGWYYVRRKGGKFFIEIRDVWPDDLVKLGSLSYRHPVSKLFDHMCKKYYPKADGFISLVPDLSEHFNRLKVRPENFIYIPNGVDLKVFKDPEPCPVVDEVFSKVPDGKIKVVYAGSIVEHKGIKEFIETLSKVNKNLRDRFVFFFVGPSHADYLVSVKETAKDLQNVFFFDPVPKRCVPYLLQKADVLLFTLSQTVMDHPAVSSYKVVDYMASGKPVLCVDIENLPFKKTKGAVFFREDNLEEALRRIFEEDLSELGRRNREYVERERDWDRLYEKLRSFVLS
MGSDKIHHHHHHMNIGLLEALDQLEEEKGISKEEVIPILEKALVSAYRKNFGNSKNVEVVIDRNTGNIKVYQLLEVVEEVEDPATQISLEEAKKIDPLAEVGSIVKKELNVKNFGRIAAQTAKQVLIQRIRELEKEKQFEKYSELKGTVTTAEVIRVMGEWADIRIGKLETRLPKKEWIPGEEIKAGDLVKVYIIDVVKTTKGPKILVSRRVPEFVIGLMKLEIPEVENGIVEIKAIAREPGVRTKVAVASNDPNVDPIGACIGEGGSRIAAILKELKGEKLDVLKWSDDPKQLIANALAPATVIEVEILDKENKAARVLVPPTQLSLAIGKGGQNARLAAKLTGWKIDIKPIMNL
MGSDKIHHHHHHMNIKEKIAVQLYSVRKEMERDLEGTLRKMHEIGFRYVQLDGMRGNDPSEVRRLLQKYELKVIGMHIKHDRFMNDLDGIIEEAYFFDCKTVFDKYIEEEDQTTAGYTATKAALINAAEKLHPLGFRIGLHNPEYDFNECIHGRRVMDYITDPVDGICIYAEPDTYWIRAAGHDETEFIKRYSGRAPIVHMKDFLSGFELEDMDNNLVEIGQGEVDFRAIIEWGEANGVEYYCIEQDKSKRAMFETLEASYQYLLQL
MGSDKIHHHHHHMNINQLKTFIVLADCLSVTETSKRLFCTQPAVSIKIRKLEETLNTVLFERINNRLYLTEQGKIFYSYAEQIISTLEMSVEHLHQYDDPNYGKIIIGASHFVGVYLLPQVIAEYRKLSPNVELRLEILSSQQLIQGLENHSIDFIIMSDQIYFDPQKYDVNRFLSDELILIVPPDHVLATYESCHFEQLCDELFIIKPKNSQTRKFLLQQFSKDQISLLKFMEINSLEGIKRCVMNGLGVSIISRFSVENELKMGMLKAVELDSFQFKRGINYIYHKEKCLSSAIGRFIGLLNILK
MGSDKIHHHHHHMNIQQMKYVAAIANNGSFREAAKKLFITQPSLSNSIRELEEELGISLFLRTNKGAFLTEEGMVFLEQAEKVLVQMELLENRYRETVTSERFSISSQHYDFLGEVIAKVLKKYGDQYKDFRVFETTTLKVIEDVKGFHSELGIIYLNEQNSVSIERYLEQANLAYEVISTFNTHIFLGNHHPLAKQKEIHLEELVPYPQVRFNQEGSNFSYFSEDLVEIPEQESVIHTTDRGTLMNLLVETNAYASGSGVVTGFTKKEIRLVPLAPALENRICLLFPKNREISPIGRYFIKELKALFKKEVDTKTFSTKE
MGSDKIHHHHHHMNISNSQVNRLRHFVRAGLRSLFRPEPQTAVEWADANYYLPKESAYQEGRWETLPFQRAIMNAMGSDYIREVNVVKSARVGYSKMLLGVYAYFIEHKQRNTLIPAGFVAVFNSDESSWHLVEDHRGKTVYDVASGDALFISELGPLPENVTWLSPEGEFQKWNGTAWVKDAEAEKLFRIREAEETKNSLMQVASEHIAPLQDAVDLEIATEEETSLLEAWKKYRVLLNRVDTSTAPDIEWPTNPVRE
MGSDKIHHHHHHMNKINRVAIVGGTHGNEFTGAFLVKKFQQFPEVIQKPSFETLTILGNPKAFEAGKRYIEKDLNRCFLTESLQNTNLSSYEDIRAKQIAGVLGAENKPNVDVVIDLHSTTANMGLSIILGNQDPFLLKLCAYLSDINPLVKVCYTIPEKGSNFLRSLNKLGFVIEVGAVAQGVLNAELFQKTEQLIYTILDYLEQYNRGNIPKINNLLALYKFTGTVDYPRNENGDIQGMIHPDIQFRDYEPLNPGDPLFLTLDGKAIAYEGTSTVYPIFINEAAYYEKGIAMLFTEKQLINPSS

Source: the DeepSol protein solubility set
